Among the data in the supplement of paper PMC6379048 are Kd values, retold here.

As a reminder, the Kd is the concentration at which binding is half-saturated. A low value points to tighter binding.

Common to all, as to assay: Kd (EC50 corrected by depletion factor)
The target of one series is CSNK2B (UniProt P67870). The method in brief:
(§1)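 Free RNA oligos (0 nM to 30 μM) competed for 1 h at 4°C in HEK293-FT lysate (2.5 mg protein/well) before a 30 min, 4°C pulldown with the same oligos on NHS-Sepharose beads. Bound proteins were quantified by label-free LC-MS/MS and normalised to the control. Kd was found by multiplying EC50, from a four-parameter log-logistic fit, by a protein-dependent depletion factor.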

For another series, the target named is T1, AASS (UniProt Q9UDR5).
T1 sequence: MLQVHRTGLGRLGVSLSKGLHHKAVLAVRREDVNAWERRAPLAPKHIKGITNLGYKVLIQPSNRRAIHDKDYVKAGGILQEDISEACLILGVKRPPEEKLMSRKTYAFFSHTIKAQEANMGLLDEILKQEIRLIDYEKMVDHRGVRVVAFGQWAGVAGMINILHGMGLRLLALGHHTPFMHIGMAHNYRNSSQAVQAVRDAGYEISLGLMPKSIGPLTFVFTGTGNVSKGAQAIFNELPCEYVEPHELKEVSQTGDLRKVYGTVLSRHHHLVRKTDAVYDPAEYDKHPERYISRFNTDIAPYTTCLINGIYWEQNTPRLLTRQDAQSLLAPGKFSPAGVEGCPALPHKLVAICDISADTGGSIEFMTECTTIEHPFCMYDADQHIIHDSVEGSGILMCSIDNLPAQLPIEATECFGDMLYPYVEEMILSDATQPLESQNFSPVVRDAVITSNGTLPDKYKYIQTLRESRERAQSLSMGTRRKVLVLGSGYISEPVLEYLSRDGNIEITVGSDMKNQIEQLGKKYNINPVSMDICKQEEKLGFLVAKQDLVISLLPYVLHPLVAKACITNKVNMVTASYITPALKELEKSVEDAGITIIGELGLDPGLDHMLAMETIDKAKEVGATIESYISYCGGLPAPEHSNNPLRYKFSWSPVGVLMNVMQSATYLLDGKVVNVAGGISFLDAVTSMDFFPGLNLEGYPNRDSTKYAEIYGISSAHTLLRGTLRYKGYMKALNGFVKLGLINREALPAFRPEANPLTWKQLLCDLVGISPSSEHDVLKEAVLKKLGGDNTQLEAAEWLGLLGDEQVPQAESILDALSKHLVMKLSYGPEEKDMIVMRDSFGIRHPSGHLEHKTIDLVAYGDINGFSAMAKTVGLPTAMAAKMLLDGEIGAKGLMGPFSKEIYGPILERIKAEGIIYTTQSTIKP
The essentials: as §1

In another series the target is T2, TSNAX (UniProt Q99598).
T2 sequence: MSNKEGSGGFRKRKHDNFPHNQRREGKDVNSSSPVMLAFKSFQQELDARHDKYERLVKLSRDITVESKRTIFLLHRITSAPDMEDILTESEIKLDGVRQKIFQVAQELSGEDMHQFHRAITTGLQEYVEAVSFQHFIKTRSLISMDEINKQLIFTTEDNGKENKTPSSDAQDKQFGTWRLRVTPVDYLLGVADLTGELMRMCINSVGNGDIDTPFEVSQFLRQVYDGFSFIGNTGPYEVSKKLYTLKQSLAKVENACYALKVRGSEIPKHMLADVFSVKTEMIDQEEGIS
The method in brief: as §1

Another series addresses T3, GPALPP1 (UniProt Q8IXQ4).
T3 sequence: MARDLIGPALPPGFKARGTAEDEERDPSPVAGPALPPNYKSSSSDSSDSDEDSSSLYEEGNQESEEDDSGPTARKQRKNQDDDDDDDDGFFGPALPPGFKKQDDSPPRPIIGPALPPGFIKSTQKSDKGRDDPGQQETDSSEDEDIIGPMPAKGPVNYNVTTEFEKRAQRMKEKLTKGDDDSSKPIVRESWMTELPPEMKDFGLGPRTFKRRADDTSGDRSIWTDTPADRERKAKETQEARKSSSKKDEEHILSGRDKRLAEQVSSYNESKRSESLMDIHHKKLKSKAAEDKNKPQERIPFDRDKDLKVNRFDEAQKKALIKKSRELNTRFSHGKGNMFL
The essentials:
as §1

The target of a further series is MRPL37 (UniProt Q9BZE1). The essentials: as §1
The next series addresses RPS19 (UniProt P39019). The method in brief:
as §1

Another series addresses CNBP (UniProt P62633). The method in brief:
as §1

The target in the next series is MRPS18B (UniProt Q9Y676). The method in brief:
as §1

The next series deals with MRPS22 (UniProt P82650). The essentials: as §1

Chain of CSNK2B (P67870 whole entry): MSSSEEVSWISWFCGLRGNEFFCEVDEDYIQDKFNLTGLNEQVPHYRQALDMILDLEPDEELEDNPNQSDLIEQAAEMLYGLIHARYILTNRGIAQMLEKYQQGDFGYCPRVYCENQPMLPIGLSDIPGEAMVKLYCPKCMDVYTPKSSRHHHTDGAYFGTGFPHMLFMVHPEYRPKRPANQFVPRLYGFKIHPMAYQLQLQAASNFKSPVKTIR
Chain of CNBP (P62633 whole entry): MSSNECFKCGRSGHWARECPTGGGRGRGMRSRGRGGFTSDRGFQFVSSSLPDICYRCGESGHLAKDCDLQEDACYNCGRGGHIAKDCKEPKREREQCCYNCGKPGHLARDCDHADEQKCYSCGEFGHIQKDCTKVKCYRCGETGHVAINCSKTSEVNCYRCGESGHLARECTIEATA

For AAUAAA, the Kd with CSNK2B stood at 2220 nM; with AASS, 1220 nM; with TSNAX, 5.96 nM; in the series with GPALPP1, 33 nM.

Regarding CUGUCCU, the values for the dissociation constant Kd with MRPL37 and with RPS19 were 76.1 nM and 69.9 nM, respectively.

As to UAUUUAU, the dissociation constant Kd in the series with CNBP is 1270 nM; with MRPS18B, 52.9 nM; with MRPS22, 57.8 nM.
